Patent US20210147507A1, “METHODS TO AUGMENT OR ALTER SIGNAL TRANSDUCTION” (Bellicum Pharmaceuticals, Inc., priority 2017, published 2021)

Tested on: chimeric Caspase-9 polypeptide
Assay: Caspase-9 mutant classes and basal activity (Table 5)
Format: cell-based
Settings: Caspase-9 mutant class; for IC50: ligand IC50 compared with unmodified chimeric Caspase-9
Source text: Even though homo-dimerization of wild-type initiator Caspase-9 is energetically unfavorable, making them mostly monomers in solution [14-16], the low-level inherent basal activity of unprocessed Caspase-9 [15, 17] is enhanced in the presence of the Apaf-1-based “apoptosome”, its natural allosteric regulator [6]. Moreover, supra-physiological expression levels and/or co-localization could lead to proximity-driven dimerization, further enhancing basal activation. The modified cells of the present application may comprise nucleic acids coding for a chimeric Caspase-9 polypeptide having lower basal signaling activity. Polynucleotides comprising Caspase-9 mutants with lower basal signaling may be expressed in the modified cells used for cell therapy herein. In these examples, the modified cells may include a safety switch, comprising a polynucleotide encoding a lower basal signaling chimeric Caspase-9 polypeptide. In the event of an adverse event following administration of the modified cells comprising the chimeric signaling polypeptides or chimeric antigen receptors herein, Caspase-9 activity may be induced by administering the dimerizer to the patient, thus inducing apoptosis and clearance of some, or all of the modified cells. In some examples, the amount of dimerizer administered may be determined as an amount designed to remove the highest amount, at least 80% or 90% of the modified cells. In other examples, the amount of dimerizer administered may be determined as an amount designed to remove only a portion of the modified cells, in order to alleviate negative symptoms or conditions, while leaving a sufficient amount of therapeutic modified cells in the patient, in order to continue therapy. Methods for using chimeric Caspase-9 polypeptides to induce apoptosis are discussed in PCT Application Number PCT/US2011/037381 by Malcolm K. Brenner et al., titled Methods for Inducing Selective Apoptosis, filed May 20, 2011, and in U.S. patent application Ser. No. 13/112,739 by Malcolm K. Brenner et al., titled Methods for Inducing Selective Apoptosis, filed May 20, 2011, issued Jul. 28, 2015 as U.S. Pat. No. 9,089,520. Chimeric caspase polypeptides having modified basal activity are discussed in PCT Application Serial Number PCT/US2014/022004 by David Spencer et al., titled Modified Caspase Polypeptides and Uses Thereof, filed Mar. 7, 2014, published Oct. 9, 2014 as WO2014/164348, and in U.S. patent application Ser. No. 13/792,135 by David Spencer et al., titled Modified Caspase Polypeptides and Uses Thereof, filed Mar. 7, 2014; and in U.S. patent application Ser. No. 14/640,553 by Spencer et al., filed Mar. 6, 2015. Methods for inducing partial apoptosis of the therapeutic modified cells are discussed in PCT Application Number PCT/US14/040964 by Kevin Slawin et al., titled Methods for Inducing Partial Apoptosis Using Caspase Polypeptides, filed Jun. 4, 2014, published Dec. 11, 2014 as WO2014/197638, and in U.S. patent application Ser. No. 14/296,404 by Kevin Slawin et al., titled Methods for Inducing Partial Apoptosis Using Caspase Polypeptides, filed Jun. 4, 2014. These patent applications and publications are all incorporated by reference herein in their entireties.

[1] = basal (ligand-independent) signaling compared with unmodified chimeric Caspase-9

chimeric Caspase-9 polypeptide, sequence (P62942 2-108 F37V limits assumed): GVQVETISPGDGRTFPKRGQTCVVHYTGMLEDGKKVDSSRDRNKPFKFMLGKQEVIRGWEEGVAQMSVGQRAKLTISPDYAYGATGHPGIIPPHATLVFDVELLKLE

| Basal Activity (mutants marked * = predicted) | Basal Activity [1] | IC50 | Molecule |
| --- | --- | --- | --- |
| Decreased | – | – | N405Q-S144Aco (protein, UniProt P55211 1-416, looked up, variant N405Q S144A, codon-optimized; in iC9 construct) MDEADRRLLRRCRLRLVEELQVDQLWDALLSRELFRPHMIEDIQRAGSGSRRDQARQLIIDLETRGSQALPLFISCLEDTGQDMLASFLRTNRQAAKLSKPTLENLTPVVLRPEIRKPEVLRPETPRPVDIGSGGFGDVGALEALRGNADLAYILSMEPCGHCLIINNVNFCRESGLRTRTGSNIDCEKLRRRFSSLHFMVEVKGDLTAKKMVLALLELAQQDHGALDCCVVVILSHGCQASHLQFPGAVYGTDGCPVSVEKIVNIFNGTSCPSLGGKPKLFFIQACGGEQKDHGFEVASTSPEDESPGSNPEPDATPFQEGLRTFDQLDAISSLPTPSDIFVSYSTFPGFVSWRDPKSGSWYVETLDDIFEQWAHSEDLQSLLLRVANAVSVKGIYKQMPGCFQFLRKKLFFKTS |
| Decreased | – | – | N405Q-T317Sco (protein, UniProt P55211 1-416, looked up, variant N405Q T317S, codon-optimized; in iC9 construct) MDEADRRLLRRCRLRLVEELQVDQLWDALLSRELFRPHMIEDIQRAGSGSRRDQARQLIIDLETRGSQALPLFISCLEDTGQDMLASFLRTNRQAAKLSKPTLENLTPVVLRPEIRKPEVLRPETPRPVDIGSGGFGDVGALESLRGNADLAYILSMEPCGHCLIINNVNFCRESGLRTRTGSNIDCEKLRRRFSSLHFMVEVKGDLTAKKMVLALLELAQQDHGALDCCVVVILSHGCQASHLQFPGAVYGTDGCPVSVEKIVNIFNGTSCPSLGGKPKLFFIQACGGEQKDHGFEVASTSPEDESPGSNPEPDASPFQEGLRTFDQLDAISSLPTPSDIFVSYSTFPGFVSWRDPKSGSWYVETLDDIFEQWAHSEDLQSLLLRVANAVSVKGIYKQMPGCFQFLRKKLFFKTS |
| – | Decreased | higher IC50 | D330A-S183A (protein) GFGDVGALESLRGNADLAYILSMEPCGHCLIINNVNFCRESGLRTRTGANIDCEKLRRRFSSLHFMVEVKGDLTAKKMVLALLELARQDHGALDCCVVVILSHGCQASHLQFPGAVYGTDGCPVSVEKIVNIFNGTSCPSLGGKPKLFFIQACGGEQKDHGFEVASTSPEDESPGSNPEPDATPFQEGLRTFDQLAAISSLPTPSDIFVSYSTFPGFVSWRDPKSGSWYVETLDDIFEQWAHSEDLQSLLLRVANAVSVKGIYKQMPGCFNFLRKKLFFKTSASRA |
| – | Decreased | higher IC50 | N405Q-S144D (protein) GFGDVGALEDLRGNADLAYILSMEPCGHCLIINNVNFCRESGLRTRTGSNIDCEKLRRRFSSLHFMVEVKGDLTAKKMVLALLELARQDHGALDCCVVVILSHGCQASHLQFPGAVYGTDGCPVSVEKIVNIFNGTSCPSLGGKPKLFFIQACGGEQKDHGFEVASTSPEDESPGSNPEPDATPFQEGLRTFDQLDAISSLPTPSDIFVSYSTFPGFVSWRDPKSGSWYVETLDDIFEQWAHSEDLQSLLLRVANAVSVKGIYKQMPGCFQFLRKKLFFKTSASRA |
| – | Decreased | higher IC50 | N405Q-S196D (protein) GFGDVGALESLRGNADLAYILSMEPCGHCLIINNVNFCRESGLRTRTGSNIDCEKLRRRFSDLHFMVEVKGDLTAKKMVLALLELARQDHGALDCCVVVILSHGCQASHLQFPGAVYGTDGCPVSVEKIVNIFNGTSCPSLGGKPKLFFIQACGGEQKDHGFEVASTSPEDESPGSNPEPDATPFQEGLRTFDQLDAISSLPTPSDIFVSYSTFPGFVSWRDPKSGSWYVETLDDIFEQWAHSEDLQSLLLRVANAVSVKGIYKQMPGCFQFLRKKLFFKTSASRA |
| – | Decreased | higher IC50 | N405Q-S144A (protein) GFGDVGALEALRGNADLAYILSMEPCGHCLIINNVNFCRESGLRTRTGSNIDCEKLRRRFSSLHFMVEVKGDLTAKKMVLALLELARQDHGALDCCVVVILSHGCQASHLQFPGAVYGTDGCPVSVEKIVNIFNGTSCPSLGGKPKLFFIQACGGEQKDHGFEVASTSPEDESPGSNPEPDATPFQEGLRTFDQLDAISSLPTPSDIFVSYSTFPGFVSWRDPKSGSWYVETLDDIFEQWAHSEDLQSLLLRVANAVSVKGIYKQMPGCFQFLRKKLFFKTSASRA |
| – | Decreased | higher IC50 | F404Y (protein) GFGDVGALESLRGNADLAYILSMEPCGHCLIINNVNFCRESGLRTRTGSNIDCEKLRRRFSSLHFMVEVKGDLTAKKMVLALLELARQDHGALDCCVVVILSHGCQASHLQFPGAVYGTDGCPVSVEKIVNIFNGTSCPSLGGKPKLFFIQACGGEQKDHGFEVASTSPEDESPGSNPEPDATPFQEGLRTFDQLDAISSLPTPSDIFVSYSTFPGFVSWRDPKSGSWYVETLDDIFEQWAHSEDLQSLLLRVANAVSVKGIYKQMPGCYNFLRKKLFFKTSASRA |
| – | Decreased | higher IC50 | D330A-S196A (protein) GFGDVGALESLRGNADLAYILSMEPCGHCLIINNVNFCRESGLRTRTGSNIDCEKLRRRFSALHFMVEVKGDLTAKKMVLALLELARQDHGALDCCVVVILSHGCQASHLQFPGAVYGTDGCPVSVEKIVNIFNGTSCPSLGGKPKLFFIQACGGEQKDHGFEVASTSPEDESPGSNPEPDATPFQEGLRTFDQLAAISSLPTPSDIFVSYSTFPGFVSWRDPKSGSWYVETLDDIFEQWAHSEDLQSLLLRVANAVSVKGIYKQMPGCFNFLRKKLFFKTSASRA |
| – | Decreased | higher IC50 | F406W (protein) GFGDVGALESLRGNADLAYILSMEPCGHCLIINNVNFCRESGLRTRTGSNIDCEKLRRRFSSLHFMVEVKGDLTAKKMVLALLELARQDHGALDCCVVVILSHGCQASHLQFPGAVYGTDGCPVSVEKIVNIFNGTSCPSLGGKPKLFFIQACGGEQKDHGFEVASTSPEDESPGSNPEPDATPFQEGLRTFDQLDAISSLPTPSDIFVSYSTFPGFVSWRDPKSGSWYVETLDDIFEQWAHSEDLQSLLLRVANAVSVKGIYKQMPGCFNWLRKKLFFKTSASRA |
| – | Decreased | higher IC50 | N405Q-T317S (protein) GFGDVGALESLRGNADLAYILSMEPCGHCLIINNVNFCRESGLRTRTGSNIDCEKLRRRFSSLHFMVEVKGDLTAKKMVLALLELARQDHGALDCCVVVILSHGCQASHLQFPGAVYGTDGCPVSVEKIVNIFNGTSCPSLGGKPKLFFIQACGGEQKDHGFEVASTSPEDESPGSNPEPDASPFQEGLRTFDQLDAISSLPTPSDIFVSYSTFPGFVSWRDPKSGSWYVETLDDIFEQWAHSEDLQSLLLRVANAVSVKGIYKQMPGCFQFLRKKLFFKTSASRA |
| – | Decreased | higher IC50 | F406Y (protein) GFGDVGALESLRGNADLAYILSMEPCGHCLIINNVNFCRESGLRTRTGSNIDCEKLRRRFSSLHFMVEVKGDLTAKKMVLALLELARQDHGALDCCVVVILSHGCQASHLQFPGAVYGTDGCPVSVEKIVNIFNGTSCPSLGGKPKLFFIQACGGEQKDHGFEVASTSPEDESPGSNPEPDATPFQEGLRTFDQLDAISSLPTPSDIFVSYSTFPGFVSWRDPKSGSWYVETLDDIFEQWAHSEDLQSLLLRVANAVSVKGIYKQMPGCFNYLRKKLFFKTSASRA |
| – | Decreased | higher IC50 | F406A (protein) GFGDVGALESLRGNADLAYILSMEPCGHCLIINNVNFCRESGLRTRTGSNIDCEKLRRRFSSLHFMVEVKGDLTAKKMVLALLELARQDHGALDCCVVVILSHGCQASHLQFPGAVYGTDGCPVSVEKIVNIFNGTSCPSLGGKPKLFFIQACGGEQKDHGFEVASTSPEDESPGSNPEPDATPFQEGLRTFDQLDAISSLPTPSDIFVSYSTFPGFVSWRDPKSGSWYVETLDDIFEQWAHSEDLQSLLLRVANAVSVKGIYKQMPGCFNALRKKLFFKTSASRA |
